The values that follow come from paper PMC4234509.

Experiment [1] deals with trypsin-digested EvpP (associated 10-kDa and 4-kDa fragments) (Edwardsiella tarda PPD130/91). Kind of experiment: SEC; EvpP after limited trypsin digestion (protein:trypsin 100:1), HiLoad 16/60 Superdex 75. A general note: Size exclusion chromatography separates by hydrodynamic size, large species first.
Experiment [2] has as its target EvpP (E. tarda virulent protein P), wild type, 6x His-tagged (Edwardsiella tarda PPD130/91). The experiment can be described thus: dynamic light scattering; 50 µM protein, 20°C, DynaPro; 11 readings.
The target is the same in experiment [3]. The experiment can be described thus: cross-linking; glutaraldehyde, room temperature, different time periods, SDS-PAGE.
For experiment [4] the target is unchanged. Kind of experiment: SEC; Superdex 75 HiLoad 16/60; EvpP eluted at ~72 ml, standards ovalbumin (44 kDa) at 63 ml and myoglobulin (17 kDa) at 83 ml.

What is called stoichiometry N is a count of units in the complex or per binding partner. “trypsin-digested EvpP (associated 10-kDa and 4-kDa fragments) (complex)” registered a stoichiometry N in experiment [1] of 2.
Consider “EvpP (E. tarda virulent protein P), wild type, 6x His-tagged (natural protein)”, for which the stoichiometry N in experiment [2], in experiment [3] and in experiment [4] was 2 in each case.
